Assay results taken from article PMC10480500, “Cryo-EM structure of a bacteriophage M13 mini variant” (Nature Communications, 2023).

B1: minor coat protein pIX (natural protein, bacteriophage M13, UniProt P69538 1-32, looked up)
chain: MSVLVYSFASFVLGWCLRSGITYFTRLMETSS
notes: Minor coat protein pIX of bacteriophage M13 (encoded by helper phage M13KO7); 32 residues, no signal peptide; 5 copies in the particle (layer 2); source: E. coli TG1 with pUC19-minigenome, infected with helper phage M13KO7; in the mini phage purified from the supernatant (cobalt resin, sucrose density gradient)
B2: minor coat protein pVII (natural protein, bacteriophage M13, UniProt P69535 1-33, looked up)
chain: MEQVADFDTIYQAMIQISVVLCFALGIIAGGQR
notes: Minor coat protein pVII of bacteriophage M13 (encoded by helper phage M13KO7); 33 residues, no signal peptide; residues 1-4 not built in the model; 5 copies in the particle (layer 1); source: E. coli TG1 with pUC19-minigenome, infected with helper phage M13KO7; in the mini phage purified from the supernatant (cobalt resin, sucrose density gradient)
B3: minor coat protein pVI (natural protein, bacteriophage M13, UniProt P69532 1-112, looked up)
chain: MPVLLGIPLLLRFLGFLLVTLFGYLLTFLKKGFGKIAIAISLFLALIIGLNSILVGYLSDISAQLPSDFVQGVQLILPSNALPCFYVILSVKAAIFIFDVKQKIVSYLDWDK
notes: 112 amino acids, no post-translational processing reported; residues 1 and 111-112 not built in the model; 5 copies in the particle; source: E. coli TG1 with pUC19-minigenome, infected with helper phage M13KO7; in the mini phage purified from the supernatant (cobalt resin, sucrose density gradient)

Columns and labels:
[1] = molecular target: B2; assay: cryo-EM structure; purified M13 mini phage particle (assembled in E. coli TG1 with helper phage M13KO7), 0.6-0.8 mg/ml; whole particle 3.5 Å with 5-fold symmetry; top, middle and bottom segments refined separately at 3.5, 3.1 and 3.3 Å; settings: both partners purified
[2] = molecular target: the molecule itself; assay: as above

Binder | binding result [1] | stoichiometry N [2]
B1 | binds | –
B2 | – | 5
B3 | – | 5
